pEC50: −log10 of the molar value.

This note sets out measurements from patent US20240218074A1.

The target in assay [1] is human NT5E-Biotin (NT5E is GenbankID: NP_002517.1, position: 1-552) (human) (UniProt P21589). The assay can be described thus: ELISA on streptavidin-captured human NT5E-Biotin; antibody 1:27 dilution of 0.333 ug/mL; replicate 1. On the technique in general: In an ELISA, binding on a coated surface is turned into a signal by an enzyme label.
Assay [2] has the same target. The assay can be described thus: ELISA on streptavidin-captured human NT5E-Biotin; antibody 1:729 dilution of 0.333 ug/mL; replicate 1.
For assay [3] the target is unchanged. The assay can be described thus: ELISA on streptavidin-captured human NT5E-Biotin; antibody 0.333 ug/mL; replicate 2.
Assay [4] concerns the target human CD73 expressed on cells (human PBMC CD8+ T cells and CD19+ B cells; endogenous CD73 of MDA-MB-231 and U87-MG cells) (human) (UniProt P21589). As to the kind of experiment: cell-based or functional assay.
Assay [5] concerns the target human NT5E-Biotin (NT5E is GenbankID: NP_002517.1, position: 1-552) (human) (UniProt P21589). The assay can be described thus: ELISA on streptavidin-captured human NT5E-Biotin; antibody 0 (blank well); replicate 1.
Assay [6] shares this target. The assay can be described thus: ELISA on streptavidin-captured human NT5E-Biotin; antibody 1:243 dilution of 0.333 ug/mL; replicate 1.
For assay [7] the target is unchanged. The assay can be described thus: ELISA on streptavidin-captured human NT5E-Biotin; antibody 1:9 dilution of 0.333 ug/mL; replicate 2.
Assay [8] has the same target. As to the kind of experiment: ELISA on streptavidin-captured human NT5E-Biotin; antibody 0.333 ug/mL; replicate 1.
Assay [9] shares this target. As to the kind of experiment: ELISA on streptavidin-captured human NT5E-Biotin; antibody 1:81 dilution of 0.333 ug/mL; replicate 1.
Assay [10] has the same target. As to the kind of experiment: ELISA on streptavidin-captured human NT5E-Biotin; antibody 1:81 dilution of 0.333 ug/mL; replicate 2.
Assay [11] shares this target. As to the kind of experiment: ELISA on streptavidin-captured human NT5E-Biotin; antibody 0 (blank well); replicate 2.
For assay [12] the target is unchanged. As to the kind of experiment: ELISA on streptavidin-captured human NT5E-Biotin; antibody 1:3 dilution of 0.333 ug/mL; replicate 2.
For assay [13] the target is unchanged. As to the kind of experiment: ELISA on streptavidin-captured human NT5E-Biotin; antibody 1:9 dilution of 0.333 ug/mL; replicate 1.
For assay [14] the target is unchanged. As to the kind of experiment: ELISA on streptavidin-captured human NT5E-Biotin; antibody 1:729 dilution of 0.333 ug/mL; replicate 2.
Assay [15] shares this target. As to the kind of experiment: ELISA on streptavidin-captured human NT5E-Biotin; antibody 1:3 dilution of 0.333 ug/mL; replicate 1.
The target is the same in assay [16]. As to the kind of experiment: ELISA on streptavidin-captured human NT5E-Biotin; antibody 1:243 dilution of 0.333 ug/mL; replicate 2.
The target is the same in assay [17]. As to the kind of experiment: ELISA on streptavidin-captured human NT5E-Biotin; antibody 1:27 dilution of 0.333 ug/mL; replicate 2.
Assay [18] has the same target. The assay can be described thus: ELISA on streptavidin-captured human NT5E-Biotin; HRP goat anti-human IgG.

Sequence of human CD73 expressed on cells (human PBMC CD8+ T cells and CD19+ B cells; endogenous CD73 of MDA-MB-231 and U87-MG cells) (human) (P21589 27-549): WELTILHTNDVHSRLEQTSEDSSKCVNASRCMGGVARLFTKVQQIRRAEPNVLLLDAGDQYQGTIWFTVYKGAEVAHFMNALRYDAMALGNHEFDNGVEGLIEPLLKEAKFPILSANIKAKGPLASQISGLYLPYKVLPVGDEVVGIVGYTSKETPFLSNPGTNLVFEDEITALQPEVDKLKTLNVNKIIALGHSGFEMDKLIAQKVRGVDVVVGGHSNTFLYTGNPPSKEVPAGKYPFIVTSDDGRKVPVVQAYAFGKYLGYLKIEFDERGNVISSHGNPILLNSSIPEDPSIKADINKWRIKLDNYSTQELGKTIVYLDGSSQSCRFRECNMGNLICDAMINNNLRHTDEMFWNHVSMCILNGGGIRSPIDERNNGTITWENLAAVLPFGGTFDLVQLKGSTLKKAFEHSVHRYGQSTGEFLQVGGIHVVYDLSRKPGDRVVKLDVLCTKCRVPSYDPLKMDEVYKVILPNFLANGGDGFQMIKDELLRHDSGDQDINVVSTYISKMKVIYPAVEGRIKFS
Sequence of human NT5E-Biotin (NT5E is GenbankID: NP_002517.1, position: 1-552) (human) (P21589 27-552 limits assumed, form in doubt): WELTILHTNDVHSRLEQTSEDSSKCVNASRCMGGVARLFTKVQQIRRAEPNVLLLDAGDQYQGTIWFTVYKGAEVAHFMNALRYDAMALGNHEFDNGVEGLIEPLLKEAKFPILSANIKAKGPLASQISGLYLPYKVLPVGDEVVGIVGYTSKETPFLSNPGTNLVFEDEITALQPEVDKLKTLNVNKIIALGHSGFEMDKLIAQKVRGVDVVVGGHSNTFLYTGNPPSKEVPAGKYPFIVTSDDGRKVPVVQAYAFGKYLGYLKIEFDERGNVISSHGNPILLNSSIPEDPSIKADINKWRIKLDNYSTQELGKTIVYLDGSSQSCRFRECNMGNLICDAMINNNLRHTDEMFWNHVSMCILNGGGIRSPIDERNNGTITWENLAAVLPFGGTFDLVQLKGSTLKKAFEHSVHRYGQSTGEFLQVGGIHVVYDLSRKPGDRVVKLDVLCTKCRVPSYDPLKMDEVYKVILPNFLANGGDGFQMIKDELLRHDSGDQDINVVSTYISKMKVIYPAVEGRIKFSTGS

The term pEC50 denotes the negative decadic logarithm of the EC50, by convention in mol/L. A high value points to a low EC50. Consider “positive control antibody MEDI9447 (Oleclumab)”, for which the OD (450 nm) in assay [1] is 1.77 OD450; in assay [2] it was 0.272 OD450; in assay [3], 2.53 OD450; in assay [5] it was 0.121 OD450; in assay [6], 0.536 OD450; in assay [7], 2.28 OD450. For the same substance, the OD (450 nm) in assay [8] is 2.55 OD450; in [9] it was 1.06 OD450; in assay [10], 1.03 OD450; in assay [11], 0.116 OD450; in [12], 2.6 OD450; in assay [13], 2.27 OD450. In addition, the OD (450 nm) in assay [14] was 0.275 OD450; in [15], 2.57 OD450; in assay [16] it was 0.528 OD450; in assay [17], 1.74 OD450. Moreover, the Inhibition rate EC50 (nM): enzyme activity of CD73 expressed by human PBMC membrane (AMP/ATP CellTiter-Glo read-out) in [4] was 0.0064 nM. In addition, the internalization rate of CD73 in MDA-MB-231 cells after 22 hours (FACS) in assay [4] was determined as 50.5%. This substance gave an internalization rate of CD73 in U87-MG cells after 22 hours (FACS) in assay [4] of 73.7%. Further, in [18], the pEC50 was 10.32.
